Measured values taken from publication PMC8254717, “Characterization of the DdrD protein from the extremely radioresistant bacterium Deinococcus radiodurans”.

T1: DdrD (Deinococcus radiodurans R1 (ATCC 13939), UniProt Q9RXI7 1-198)
T1 sequence: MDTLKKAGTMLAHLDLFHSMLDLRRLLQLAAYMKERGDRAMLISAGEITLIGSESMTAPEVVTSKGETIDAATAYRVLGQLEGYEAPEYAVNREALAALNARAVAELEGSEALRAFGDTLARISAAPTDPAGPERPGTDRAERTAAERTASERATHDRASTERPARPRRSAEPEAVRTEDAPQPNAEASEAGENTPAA


Key:
DdrD [1] = molecular target: T1, DdrD; assay: EMSA; 5 mM Mg2+; DdrD up to 8 uM; not completely shifted at highest concentration; proteinase K releases DNA; EMSA: 40 mM Tris-HCl pH 7.8, 5 mM MgCl2, 1.5 mM DTT, 50 mM NaCl, 2.5% glycerol, 3.3 nM DNA, 15 min at 4 C; 6% native PAGE in 0.25X TBE with 10% glycerol; conditions: protein: recombinant; tags: none (untagged; native stop codon in reverse primer, pET21a NdeI/EcoRI); label: 5' Cy5
DdrD [2] = molecular target: T1, DdrD; assay: EMSA; 5 mM Mg2+; same DdrD concentrations as oligo 1; EMSA: 40 mM Tris-HCl pH 7.8, 5 mM MgCl2, 1.5 mM DTT, 50 mM NaCl, 2.5% glycerol, 3.3 nM DNA, 15 min at 4 C; 6% native PAGE in 0.25X TBE with 10% glycerol; conditions: protein: recombinant; tags: none (untagged; native stop codon in reverse primer, pET21a NdeI/EcoRI); label: 5' Cy5 on strand 1; blunt

Binder | binding result (DdrD [1]) | binding result (DdrD [2])
oligo 1 (67-mer ssDNA) (ssDNA) DNA: CTGTTTAAGAAATTCACCTCGAAAGCAAGCTGATAAACCGATACAATTAAAGGCTCCTTTTGGAGCC | binds | –
oligo 2 (67-mer dsDNA) (dsDNA) DNA 1: CTGTTTAAGAAATTCACCTCGAAAGCAAGCTGATAAACCGATACAATTAAAGGCTCCTTTTGGAGCC DNA 2: GGCTCCAAAAGGAGCCTTTAATTGTATCGGTTTATCAGCTTGCTTTCGAGGTGAATTTCTTAAACAG | – | no binding
